The target in this assay is RPB1 subunit of human RNA Polymerase II (human, UniProt P24928 1-1970). The assay can be described thus: cryo-EM structure.

B1: RECQL5_(1–620) D157A (domain or fragment)
chain: MSSHHTTFPFDPERRVRSTLKKVFGFDSFKTPLQESATMAVVKGNKDVFVCMPTGAGKSLCYQLPALLAKGITIVVSPLIALIQDQVDHLLTLKVRVSSLNSKLSAQERKELLADLEREKPQTKILYITPEMAASSSFQPTLNSLVSRHLLSYLVVAEAHCVSQWGHDFRPDYLRLGALRSRLGHAPCVALTATATPQVQEDVFAALHLKKPVAIFKTPCFRANLFYDVQFKELISDPYGNLKDFCLKALGQEADKGLSGCGIVYCRTREACEQLAIELSCRGVNAKAYHAGLKASERTLVQNDWMEEKVPVIVATISFGMGVDKANVRFVAHWNIAKSMAGYYQESGRAGRDGKPSWCRLYYSRNDRDQVSFLIRKEVAKLQEKRGNKASDKATIMAFDALVTFCEELGCRHAAIAKYFGDALPACAKGCDHCQNPTAVRRRLEALERSSSWSKTCIGPSQGNGFDPELYEGGRKGYGDFSRYDEGSGGSGDEGRDEAHKREWNLFYQKQMQLRKGKDPKIEEFVPPDENCPLKEASSRRIPRLTVKAREHCLRLLEEALSSNRQSTRTADEADLRAKAVELEHETFRNAKVANLYKASVLKKVADIHRASKDGQPYDM
As for B1, the binding result is recorded as “binds”.

(Values after PMC11838285 (bioRxiv, 2025).)
